From the supplement of paper PMC7877785
± gives the uncertainty stated by the source.

Assay: self-splicing fitness, log relative to wild type (ln ratio); higher = more splicing; Tetrahymena group I intron in knt gene, E. coli kanamycin selection, DiMSum; sequences stand for … in CUCUCU…GGAGGGAAAAGUUAUCAGGCAUGCACCUGGUAGCUAGUCUUUAAACCAAUAGAUUGCAUCGGUUUAAAAGGCAAGACCGUCAAAUUGCGGGAAAGGGGUCAACAGCCGUUCAGUACCAAGUCUCAGGGGAAACUUUGAGAUGGCCUUGCAAAGGGUAUGGUAAUAAGCUGACGGACAUGGUCCUAACCACGCAGCCAAGUCCUAAGUCAACAGAUCUUCUGUUGAUAUGGAUGCAGUUCACAGACUAAAUGUCGGUCGGGGAAGAUGUAUUCUUCUCAUAAGAUAUAGUCGGACCUCUCCUUAAUGGGAGCUAGCGGAUGAAGUGAUGCAACACUGGAGCCGCUGGGAACUAAUUUGUAUGCGAAAGUAUAUUGAUUAGUUUUGGAGUACUCGUGGUCG
Method in brief: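 A randomised library covering all eight P1ex-region intron nucleotides was built with the intron in the knt kanamycin-resistance gene on pET-22b(+) and held in E. coli BL21(DE3). Cells were grown overnight at 37°C or 30°C on LB agar, with or without 25 μg/mL kanamycin, plus 100 μg/mL carbenicillin, 50 μM IPTG and 0.2% rhamnose, and pooled colonies were amplicon-sequenced on an Illumina HiSeq 2500. DiMSum fitness is the error-weighted combination of wild-type-normalised replicate fold changes, kanamycin versus none.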

UGCAAGCAAUAUUACGAUGG
self-splicing fitness (ln) (30 °C): -1.25 ± 0.1 | self-splicing fitness (ln) (37 °C): -0.29 ± 0.12

CAAUAGCAAUAUUACGCACG
self-splicing fitness (ln) (30 °C): -1.01 ± 0.19 | self-splicing fitness (ln) (37 °C): -1.12 ± 0.17

CCAUAGCAAUAUUACGCUGA
self-splicing fitness (ln) (30 °C): -3.52 ± 0.41 | self-splicing fitness (ln) (37 °C): -1.99 ± 0.28

UCGCAGCAAUAUUACGCAAG
self-splicing fitness (ln) (30 °C): -3.01 ± 0.17 | self-splicing fitness (ln) (37 °C): -1.69 ± 0.25

AGCCAGCAAUAUUACGUCGA
self-splicing fitness (ln) (30 °C): -3.17 ± 0.17 | self-splicing fitness (ln) (37 °C): -2.88 ± 0.18

UGACAGCAAUAUUACGGGAC
self-splicing fitness (ln) (30 °C): -4.05 ± 0.31 | self-splicing fitness (ln) (37 °C): -2.31 ± 0.22

CUCAAGCAAUAUUACGAUAA
self-splicing fitness (ln) (30 °C): -3.78 ± 0.16 | self-splicing fitness (ln) (37 °C): -1.93 ± 0.12

UUAGAGCAAUAUUACGGCUU
self-splicing fitness (ln) (30 °C): -2.83 ± 0.21 | self-splicing fitness (ln) (37 °C): -1.79 ± 0.22

CAAGAGCAAUAUUACGGGAG
self-splicing fitness (ln) (30 °C): -2.35 ± 0.11 | self-splicing fitness (ln) (37 °C): -1.8 ± 0.12

GCAAAGCAAUAUUACGACGG
self-splicing fitness (ln) (30 °C): -2.23 ± 0.13 | self-splicing fitness (ln) (37 °C): -1.2 ± 0.2

ACGAAGCAAUAUUACGCGCC
self-splicing fitness (ln) (30 °C): -0.967 ± 0.1 | self-splicing fitness (ln) (37 °C): 0.356 ± 0.14

CAAGAGCAAUAUUACGAUAU
self-splicing fitness (ln) (30 °C): -3.3 ± 0.29 | self-splicing fitness (ln) (37 °C): -2.7 ± 0.3

AUUGAGCAAUAUUACGGUUU
self-splicing fitness (ln) (30 °C): -3.23 ± 0.21 | self-splicing fitness (ln) (37 °C): -2.16 ± 0.22

UGGUAGCAAUAUUACGGACU
self-splicing fitness (ln) (30 °C): -0.67 ± 0.17 | self-splicing fitness (ln) (37 °C): 0.844 ± 0.2

UUGAAGCAAUAUUACGCGGU
self-splicing fitness (ln) (30 °C): -2.94 ± 0.16 | self-splicing fitness (ln) (37 °C): -2.3 ± 0.19

CCUGAGCAAUAUUACGGUUA
self-splicing fitness (ln) (30 °C): -2.13 ± 0.22 | self-splicing fitness (ln) (37 °C): -2.96 ± 0.22

UAAAAGCAAUAUUACGCAUA
self-splicing fitness (ln) (30 °C): -1.44 ± 0.088 | self-splicing fitness (ln) (37 °C): -0.782 ± 0.1

UUCGAGCAAUAUUACGGCGG
self-splicing fitness (ln) (30 °C): -1.3 ± 0.095 | self-splicing fitness (ln) (37 °C): -0.639 ± 0.12

GCCAAGCAAUAUUACGUUUG
self-splicing fitness (ln) (30 °C): -3.38 ± 0.16 | self-splicing fitness (ln) (37 °C): -2.61 ± 0.21

CAGUAGCAAUAUUACGAGCU
self-splicing fitness (ln) (30 °C): -3.07 ± 0.28 | self-splicing fitness (ln) (37 °C): 0.322 ± 0.19

GCCCAGCAAUAUUACGAAUC
self-splicing fitness (ln) (30 °C): -0.771 ± 0.083 | self-splicing fitness (ln) (37 °C): -0.457 ± 0.086

ACAUAGCAAUAUUACGUCUU
self-splicing fitness (ln) (30 °C): -1.33 ± 0.077 | self-splicing fitness (ln) (37 °C): -0.302 ± 0.084

GAAUAGCAAUAUUACGUGGA
self-splicing fitness (ln) (30 °C): -3.38 ± 0.25 | self-splicing fitness (ln) (37 °C): -1.17 ± 0.15

AAUCAGCAAUAUUACGCGCA
self-splicing fitness (ln) (30 °C): -0.8 ± 0.081 | self-splicing fitness (ln) (37 °C): -0.264 ± 0.12

GGCGAGCAAUAUUACGUUGA
self-splicing fitness (ln) (30 °C): -1.56 ± 0.13 | self-splicing fitness (ln) (37 °C): -2.18 ± 0.15

UUUCAGCAAUAUUACGCACG
self-splicing fitness (ln) (30 °C): -1.05 ± 0.12 | self-splicing fitness (ln) (37 °C): -0.0521 ± 0.13

GAGAAGCAAUAUUACGUUCC
self-splicing fitness (ln) (30 °C): -3.57 ± 0.32 | self-splicing fitness (ln) (37 °C): -1.65 ± 0.29

UUCGAGCAAUAUUACGAUAC
self-splicing fitness (ln) (30 °C): -3.34 ± 0.23 | self-splicing fitness (ln) (37 °C): -3.26 ± 0.26

UACAAGCAAUAUUACGAGCA
self-splicing fitness (ln) (30 °C): -0.289 ± 0.067 | self-splicing fitness (ln) (37 °C): -0.0424 ± 0.075

UGGGAGCAAUAUUACGGGGG
self-splicing fitness (ln) (30 °C): -2.97 ± 0.25 | self-splicing fitness (ln) (37 °C): -2.17 ± 0.35

UAUCAGCAAUAUUACGUACG
self-splicing fitness (ln) (30 °C): -0.641 ± 0.087 | self-splicing fitness (ln) (37 °C): 0.404 ± 0.11

UAUUAGCAAUAUUACGUUAA
self-splicing fitness (ln) (30 °C): -1.91 ± 0.36 | self-splicing fitness (ln) (37 °C): -1.53 ± 0.18

UUAGAGCAAUAUUACGUUCU
self-splicing fitness (ln) (30 °C): -4.07 ± 0.27 | self-splicing fitness (ln) (37 °C): -2.92 ± 0.3

UGCCAGCAAUAUUACGAAUA
self-splicing fitness (ln) (30 °C): -2.53 ± 0.16 | self-splicing fitness (ln) (37 °C): -0.828 ± 0.12

CCCAAGCAAUAUUACGAAUA
self-splicing fitness (ln) (30 °C): -3.15 ± 0.27 | self-splicing fitness (ln) (37 °C): -2.68 ± 0.25

CAUUAGCAAUAUUACGAGUU
self-splicing fitness (ln) (30 °C): -3.7 ± 0.17 | self-splicing fitness (ln) (37 °C): -2.67 ± 0.18

GAAUAGCAAUAUUACGACUG
self-splicing fitness (ln) (30 °C): 0.089 ± 0.15 | self-splicing fitness (ln) (37 °C): -1.43 ± 0.17

CCUGAGCAAUAUUACGGUGA
self-splicing fitness (ln) (30 °C): -4 ± 0.3 | self-splicing fitness (ln) (37 °C): -2.64 ± 0.26

UUCGAGCAAUAUUACGCUAA
self-splicing fitness (ln) (30 °C): -2.91 ± 0.29 | self-splicing fitness (ln) (37 °C): -1.61 ± 0.17

UGAAAGCAAUAUUACGGUGA
self-splicing fitness (ln) (30 °C): -1.27 ± 0.11 | self-splicing fitness (ln) (37 °C): -1.04 ± 0.14

GAUCAGCAAUAUUACGGCGA
self-splicing fitness (ln) (30 °C): -0.479 ± 0.15 | self-splicing fitness (ln) (37 °C): -0.214 ± 0.15

AUUAAGCAAUAUUACGGGGU
self-splicing fitness (ln) (30 °C): -4.11 ± 0.24 | self-splicing fitness (ln) (37 °C): -2.83 ± 0.2
